Consider four molecules from PMC3034218 (Journal of molecular biology, 2004).

Sequences and labels used below:
B1: τ protein (τ subunit of the clamp-loader), B. subtilis, full-length (natural protein, UniProt P09122 1-563, looked up)
chain: MSYQALYRVFRPQRFEDVVGQEHITKTLQNALLQKKFSHAYLFSGPRGTGKTSAAKIFAKAVNCEHAPVDEPCNECAACKGITNGSISDVIEIDAASNNGVDEIRDIRDKVKFAPSAVTYKVYIIDEVHMLSIGAFNALLKTLEEPPEHCIFILATTEPHKIPLTIISRCQRFDFKRITSQAIVGRMNKIVDAEQLQVEEGSLEIIASAADGGMRDALSLLDQAISFSGDILKVEDALLITGAVSQLYIGKLAKSLHDKNVSDALETLNELLQQGKDPAKLIEDMIFYFRDMLLYKTAPGLEGVLEKVKVDETFRELSEQIPAQALYEMIDILNKSHQEMKWTNHPRIFFEVAVVKICQTSHQSAADLPEVDMLMKKIQQLEQEVERLKTTGIKAAAESPKKEAPRVPKGGKSNYKAPVGRIHEILKEATRPDLDLLRNSWGKLLAHLKQQNKVSHAALLNDSEPVAAGSAAFVLKFKYEIHCKMVAEDNNGVRTNLEQILESMLGKRMDLIGVPEAQWGKIREEFLEDHQQENEGSNEPAEEDPLIAEAKKLVGADLIEIKD

For one series, the target named is τ (Escherichia coli) (UniProt P06710). Conditions: cited from earlier work.
Chain of τ (Escherichia coli) (P06710 2-643): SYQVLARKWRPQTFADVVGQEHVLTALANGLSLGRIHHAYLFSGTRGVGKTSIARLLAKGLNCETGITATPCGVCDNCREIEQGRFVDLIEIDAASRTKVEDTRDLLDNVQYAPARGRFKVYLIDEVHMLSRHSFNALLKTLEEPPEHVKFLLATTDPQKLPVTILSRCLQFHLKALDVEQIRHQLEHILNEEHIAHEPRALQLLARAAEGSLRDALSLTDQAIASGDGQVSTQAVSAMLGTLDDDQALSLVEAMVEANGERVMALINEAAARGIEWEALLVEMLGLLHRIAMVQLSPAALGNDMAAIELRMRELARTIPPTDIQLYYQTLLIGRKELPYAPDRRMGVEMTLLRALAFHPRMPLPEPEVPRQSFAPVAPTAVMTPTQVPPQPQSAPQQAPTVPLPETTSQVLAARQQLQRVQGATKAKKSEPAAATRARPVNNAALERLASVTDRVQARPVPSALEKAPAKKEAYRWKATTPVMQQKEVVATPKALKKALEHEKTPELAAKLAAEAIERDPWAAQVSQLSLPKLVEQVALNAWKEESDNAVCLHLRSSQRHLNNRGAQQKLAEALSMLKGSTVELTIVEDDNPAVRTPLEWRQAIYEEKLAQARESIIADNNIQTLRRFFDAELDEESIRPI
Series [1] deals with τ domain III, B. subtilis (B. subtilis). The series can be described thus: SEC.
The series “atomic force microscopy” concerns the molecule itself. Nature of the series: atomic force microscopy.
In series [2] the target is B1. Nature of the series: SPR.

As for DnaB (from UniProt P0ACB0), the Kd with τ (Escherichia coli) was 4 nM. In series [1], “τ domain III, B. subtilis (domain or fragment)” yielded a stoichiometry N of 2. Consider B1, for which the binding result in the series “atomic force microscopy” was “binds”.

B2: His-tagged DnaB, Bacillus stearothermophilus (enzyme, UniProt Q9X4C9 1-454, looked up)
chain: MSELFSERIPPQSIEAEQAVLGAVFLDPAALVPASEILIPEDFYRAAHQKIFHAMLRVADRGEPVDLVTVTAELAASEQLEEIGGVSYLSELADAVPTAANVEYYARIVEEKSVLRRLIRTATSIAQDGYTREDEIDVLLDEADRKIMEVSQRKHSGAFKNIKDILVQTYDNIEMLHNRDGEITGIPTGFTELDRMTSGFQRSDLIIVAARPSVGKTAFALNIAQNVATKTNENVAIFSLEMSAQQLVMRMLCAEGNINAQNLRTGKLTPEDWGKLTMAMGSLSNAGIYIDDTPSIRVSDIRAKCRRLKQESGLGMIVIDYLQLIQGSGRSKENRQQEVSEISRSLKALARELEVPVIALSQLSRSVEQRQDKRPMMSDIRESGSIEQDADIVAFLYRDDYYNKDSENKNIIEIIIAKQRNGPVGTVQLAFIKEYNKFVNLERRFDEAQIPPGA
As to B2, in series [2], the affinity, expressed as Kd, was 2.3 nM.
